± gives the standard deviation of the averaged measurements.
These sequences were tested on Saccharomyces cerevisiae (assay: protein stability index of tFT-peptide fusion (C-terminal peptide) (PSI (0-1 scale)); higher = more stable (slower turnover)). Details: genetic background: wild type; temperature: 30 C.
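Note: PSI is a weighted mean of sequencing reads over stability bins, variants kept only with over 10 reads, mCherry proximal and sfGFP distal, peptide attached via GGGS linker.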

Sequence	protein stability index
GIVRGCGGGGEE	0.6922 ± 0.0049
APSGVGANGWGR	0.654 ± 0.0085
CFLCLAYGFFSF	0.571 ± 0.03
RLTPLSSSRLPP	0.6556 ± 0.0043
PPPSSIGRTPIS	0.693 ± 0.033
LTSVQFNKWTIE	0.714 ± 0.047
IAPLMSSILYPI	0.685 ± 0.025
PSQRRTPPGLFK	0.656 ± 0.059
ARNGVCTERSVL	0.691 ± 0.028
GGGGKGTSGQGR	0.688 ± 0.017
CFCSLLSPSLFL	0.751 ± 0.091
FSPVSAPPTRVS	0.703 ± 0.042
SRGSMLRRPLFV	0.571
VAFLSSADLLPP	0.676 ± 0.056
SSLPPSDQPPSP	0.733 ± 0.071
TRVAYINRGETR	0.78 ± 0.2
IKTCANGPPHSM	0.64 ± 0.06
VLGSVGGFVQRD	0.677 ± 0.036
PFSWRPLSSPTA	0.757 ± 0.004
TPTDPLSLYAFP	0.69 ± 0.013
LSCRLDGIVIWF	0.64 ± 0.051
LKLTFFCRQNIF	0.574 ± 0.0098
SLAASPPSPLLP	0.63 ± 0.09
PPALPLFPNAAG	0.709 ± 0.049
SGHELLGSVFRR	0.681 ± 0.076
LSSSVAPLIPPP	0.767 ± 0.031

Sequence	protein stability index
RRSLSPPRPRYM	0.7 ± 0.018
VGKQRISPSSPS	0.664 ± 0.018
VRHSLFPCPSPT	0.714 ± 0.035
VRGGLVGRSVGC	0.559 ± 0.08
PPPAPAPPLTSS	0.71 ± 0.023
VPCYSSACHGDA	0.669 ± 0.1
CLRKKYSNTLLM	0.647 ± 0.028
RVPNLYLRSRKI	0.68 ± 0.034
TYTCRQVSCNAL	0.681 ± 0.012
DQVGLVLSDLIY	0.7272 ± 0.00085
SPPPPPPPLPPA	0.731 ± 0.037
DERLNGWERGDV	0.698 ± 0.07
FSCKRMISKTGF	0.669 ± 0.035
RLIGLLRKTSKK	0.719 ± 0.089
SRKLRKSLFKKS	0.689 ± 0.045
KRAREKDGKSAD	0.676 ± 0.032
GCFLDLVFRSRI	0.668 ± 0.0074
GFSSVILMHMPC	0.7534 ± 0.0048
SPPRPPAPPSPT	0.701 ± 0.014
LPRFTPPLPPPL	0.734 ± 0.0096
WSPPRAAPRPHP	0.642 ± 0.045
SQCNRGSWRSPS	0.645 ± 0.0073
ILSDCWDQTIIE	0.671 ± 0.018
PLPPAPPPPPPP	0.728 ± 0.029
GDFILLCDFDPI	0.712 ± 0.09
NTTTTKNRTPKR	0.6952 ± 0.0063

Sequence	protein stability index
GVLRICFGGLVS	0.729 ± 0.031
VSPLVRVFSCAI	0.598 ± 0.033
KQSIKKKKIKKT	0.634 ± 0.017
FKNVTGWLFFCR	0.702 ± 0.064
YEGARAPAGGEK	0.689 ± 0.034
SIEEKRNKIDKI	0.769 ± 0.2
GVGGEPDLADWG	0.762 ± 0.023
VVSKMGFGAALV	0.654 ± 0.085
PHIRPPQCTRPI	0.737 ± 0.015
LPPTPTLPLVPP	0.7153 ± 0.0053
TGDIKYYKDKLE	0.639 ± 0.0097
QGKNAPERTIKQ	0.631 ± 0.025
DVRLGSQGSFRW	0.705 ± 0.01
FRPPPTLLLRPH	0.676 ± 0.026
FPSCVLGGWYCG	0.7114 ± 0.0016
LSALPLTRPLAR	0.709 ± 0.043
RAPPPATLPPLQ	0.661 ± 0.086
PLPLFPLPPVAP	0.66 ± 0.012
GRRRCGGGGEVC	0.66 ± 0.064
KKIKKKQKKKIQ	0.664 ± 0.071
NKTNSKKSIFTV	0.703 ± 0.01
LGGERERGRKRG	0.672 ± 0.048
DCSCRRSISVLV	0.54 ± 0.024
PPYPLLLRLPPP	0.618 ± 0.066
PLPPAARPPSAL	0.729 ± 0.015
LCYTDMIRGCVF	0.65 ± 0.021

Sequence	protein stability index
LYWSGFCPVFWG	0.7164 ± 0.0027
PSSPSTRPRFPL	0.68 ± 0.083
ILVGPTDFLPLE	0.651 ± 0.016
RKLFLKNELGSK	0.7 ± 0.14
CYPIPEGWIGLM	0.607 ± 0.045
PRLRPFATPNCF	0.636 ± 0.046
RQGHKRVKISGM	0.599 ± 0.091
EGRCPAMRGAFG	0.6797 ± 0.0041
PLTFGLGPVNLP	0.683 ± 0.054
KINPQKTEWARR	0.689 ± 0.024
GVGGPLRPGPCQ	0.758 ± 0.24
VKLSVITGCRVT	0.659 ± 0.092
PYACQYVPCITT	0.5904 ± 0.004
PPPPTLSPPRSL	0.718 ± 0.034
PSLPPPPPTPPT	0.688 ± 0.047
DREKRKSGGERR	0.647 ± 0.039
HNPRTCRAPLSL	0.671 ± 0.0079
PSPPSLPSCYAT	0.717 ± 0.029
FPGLHVNHPAWP	0.688 ± 0.027
GGWDLIASVREF	0.649 ± 0.017
HQCVIVNFEKYD	0.669 ± 0.038
INGSTENKSVKT	0.644 ± 0.012
GFLIGRLGEGSG	0.728 ± 0.023
